Assay results: the nanobody polyreactivity screen of Harvey et al. (2022)

Test: yeast display, Sf9 membrane polyspecificity reagent, FACS + sequencing; frameworks hold sequencing errors
Procedure, shortened: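 Using colony PCR, genes from sorted yeast display clones were amplified, then sequenced on MiSeq at 2 × 250 and filtered by CDR length. The clones had been stained with 10% biotinylated, detergent-solubilized Sf9 membrane reagent for 1 hour at 4 °C and sorted by FACS into low and high (top ~1%) gates on anti-HA and streptavidin fluorescence. Polyreactivity labels come from the gate of origin.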

Sequence | polyreactivity (PSR sort gate)
QVQLVESGGGLVQAGGSLRLSCAASGRTFYRYAMGWYRQAPGKEREFVAAISGSGGRTYYADSVKGRFTISRDNAKNTVYLQMNSLKPEDTAVYYCNAYPHAYTGSTREGDYWGQGTQVTVSS | high polyreactivity
QVQLVESGGGLVQAGGSLRLSCAASGRTFYRYAMGWYRQAPGKEREFVATISRSGGSTFYADSVKGRFTISRDNAKNTVYLQMNSLKPEDTAVYYWAAVGWYPYQMVYWGQGTQVTVSS | high polyreactivity
QVQLVESGGGLVQAGGSLRLSCAASGRTFYRYAMGWYRQAPGKERELVAAIRWSGGSTYYADSVKGRFTISRDNAKNTVYLQMNSLKPEDTAVYYCAARAIQLVDGRYKVRMDYWGQGTQVTVSS | low polyreactivity
QVQLVESGGGLVQAGGSLRLSCAASGRTFYRYVMGWYRQAPGKERELVAAIRSSGTSTYYADSVKGRFTISRDNAKNTVYLQMNSLKPEDTAVYYCARDSYRGYVYSLDYWGQGTQVTVSS | high polyreactivity
QVQLVESGGGLVQAGGSLRLSCAASGRTFYSNAMGWYRQAPGKERELVAAITFGGGSTYYADSVKGRFTISRDNAKNTVYVQMNSLKPEDTAVYYCAAEGYKYRFYYWGQGTQVTVSS | low polyreactivity
QVQLVESGGGLVQAGGSLRLSCAASGRTFYSNAMGWYRQAPGKERELVASISYGGGTTHYADSVKGRFTISRDNAKNTVYLQINSVKPEDTAVYYCAADPEHQWESVTIGEYDYWGQGTQVTVSS | low polyreactivity
QVQLVESGGGLVQAGGSLRLSCAASGRTFYSNAMGWYRQAPGKERELVATISSGGSTNYADSVKGRFTISRDNAKNTVYLQMNSLKPEDTAVYYCATRPDRINDYWGQGTQVTVSS | low polyreactivity
QVQLVESGGGLVQAGGSLRLSCAASGRTFYSNVMGWYRQAPGKERELVAAISSSTYYADSVKGRFTISRDNANNTVYLQMNSLKPEDTAVYYCAAYSRYYPYYRYGYLGQGTQVTVSS | high polyreactivity
QVQLVESGGGLVQAGGSLRLSCAASGRTFYSYAIGWYREAPGKERELVASISSGGGTNYADSVKGRFTISRDNAKNTVYLQMNSLKPDDTAVYYCAAKYWIFYPYDYWGQGTQVTVSS | low polyreactivity
QVQLVESGGGLVQAGGSLRLSCAASGRTFYSYAMGWSRQAPGKERELVAAISRAGGTYYADSVKGRFTLSRDNAKNTVYLQMNSLKPEDTAVYYCAARQAVYGLRSDFYYWGQGTQVTVSS | high polyreactivity
QVQLVESGGGLVQAGGSLRLSCAASGRTFYSYAMGWYRKAPGKERELVAAISASGGRTYYADSVKGRFTISRDNAKNTVYLQMNSLKPEDTAVYYCAAYPWYRMWGQGTQVTVSS | high polyreactivity
QVQLVESGGGLVQAGGSLRLSCAASGRTFYSYAMGWYRQAPGKERELVAAISFRDGRTYYADSVKGRFTISRDNAKNTVYLQMNSLKPEDTAVYYCAAQLSHYYSLYYYWGQGTQVTVSS | high polyreactivity
QVQLVESGGGLVQAGGSLRLSCAASGRTFYSYAMGWYRQAPGKERELVAAISRSGNTYYADSVKGRFTISRDNAKNTVYLQMNSLKPEDTAVYYCAAYYWWGYPENDYWGQGTQVTVSS | high polyreactivity
QVQLVESGGGLVQAGGSLRLSCAASGRTFYSYVMGWSRQAPGKERELVAAISQSGGNTYYADSVKGRFTISRDNAKNTVYLQMNSLKPEDTAVYYCAAGGVLTSWFGQEYEYYYWGQGTQVTVSS | high polyreactivity
QVQLVESGGGLVQAGGSLRLSCAASGRTFYTNAMGCYRQAPGKERELVARIRRGGTTNYADSVKGRFTISRDNAKNTVYLQMNSLKPEDTAVYYCSYSYGYWGQGTQVTVSS | high polyreactivity
QVQLVESGGGLVQAGGSLRLSCAASGRTFYTNVMGWYRQAPGKERELVAAITTSSSRTYYADSVKGRFTISRDNAKNTVYLQMNSLKPEDTAVYYCAARIHGSWSFDYWGQGTQVTVSS | low polyreactivity
QVQLVESGGGLVQAGGSLRLSCAASGRTFYTYGMGWYRQAPGKERELVAAITETGDSTYYADSVKGRFTISRDNAKNTVYLQMNSLKPEDTAVYYCAADYRAPLDYWGQGTQVTVSS | low polyreactivity
QVQLVESGGGLVQAGGSLRLSCAASGRTFYVNAMGWYRQAHGKERELVASITSGGSTYYADSVKGRFTISRDNAKNTVYLQMNSLKPEDTAVYYCAARWVQRLRHYIFYYWGQGTQGTVSS | high polyreactivity
QVQLVESGGGLVQAGGSLRLSCAASGRTFYVNAMGWYRQAPGKERELVATITDRGGRTYYADSVKGRFTISRDNAKNTVYLQMNSLKPEDTAVYYCAATRWYEVDYWGQGTQVTVSS | low polyreactivity
QVQLVESGGGLVQAGGSLRLSCAASGRTFYVNTMGWYRQAHGKEKDLVARITRGGSTYYADSVKGRFTISRDNAKNTVYLQMNSLKPEDTAVYYCATDHFPVYSTHVIYEFDYWGQGTQVTVSS | low polyreactivity
QVQLVESGGGLVQAGGSLRLSCAASGRTFYVNTMRWYRQAPGKEREFVARITRGGSTYYADSVKGRFTISRDNAMNTVYLEMNSLKPEDTAFYYCGTDHFPVYSTHVIYEFDYWGQGTQVTVSS | low polyreactivity
QVQLVESGGGLVQAGGSLRLSCAASGRTFYWNAMGWYRQAPGKERELVAAITRNGGSTYYADSVKGRFTISRDNAKNNVYLQMNSLKPEDTAVYYCAARKRYGAGYDYWGQGTQVTVSS | high polyreactivity

Sequence | polyreactivity (PSR sort gate)
QVQLVESGGGLVQAGGSLRLSCAASGRTFYWNAMGWYRQAPGKERELVAGISRGGGITYYADSVKGRFTISRDNAKYTVYLQMNSLKPEDTAVYYCNSRAGRQLARYGYWGQGTQVTVSS | high polyreactivity
QVQLVESGGGLVQAGGSLRLSCAASGRTFYWNAMGWYRQAPGKERELVASINGGGSTYYADSVKGRFTISRDNAKNTVYLKMNSLKPEDTAVYYCNTSYIIWYDSWGQGTQVTVSS | low polyreactivity
QVQLVESGGGLVQAGGSLRLSCAASGRTFYWYAMGWYRQAPGKERELVAAITSGGSTNYADSVKGRFTISRDNAKNTVYLQMNSLKPEDTAVYYCAARRSVRRGGDYYWGQGTQVTVSS | high polyreactivity
QVQLVESGGGLVQAGGSLRLSCAASGRTFYWYTMGWYRQAPGKERELVAAISIGGITSYADSVKGRFTISRDNAKNTVYLQMNSLKPEDTAVYYCAAESACSRPYFNSIHRRDSWGQGTQVTVSS | low polyreactivity
QVQLVESGGGLVQAGGSLRLSCAASGRTFYYAMGWYRQAPGKERELVAAISWSGGRTYYADSVKARFTISRDNAKNTVYLQMNSLKPEDTAVYFCAAIYYYSPRDGFIYWGQGTQVTVSS | high polyreactivity
QVQLVESGGGLVQAGGSLRLSCAASGRTFYYAMGWYRQAPGKERELVAAITSSSSTYYADSVKGRFTISRDNAKNTVYLQLNSVKPEDTAVYYCNAADDPYGSPSYGYDYWGQGTQVTVSS | low polyreactivity
QVQLVESGGGLVQAGGSLRLSCAASGRTFYYNGMAWYRQAPGKERELVAAITSGGTTTYADSVKGLFTISRDNAKNSVYLQMNSVKPEETAVYYSNADYWAVNYDYCGQGTQVTVSS | low polyreactivity
QVQLVESGGGLVQAGGSLRLSCAASGRTFYYNTMGWYRQAPGKERELVAAISWRTGSTYYADSVKGRFTISRDNAKNTVYLQMNSLKPEDTAVYYCAAVLFGYPRTIGTWYDRYYYWGQGTQVTVSS | high polyreactivity
QVQLVESGGGLVQAGGSLRLSCAASGRTFYYNTMGWYRQAPGKERELVASITSGSSTYYADSVKGRFTISRDNAKNTVYLQMNSLKPEDTEVYYCAVYRRYSVKYHYGYWGQGTQVTVSS | high polyreactivity
QVQLVESGGGLVQAGGSLRLSCAASGRTFYYNTMGWYRQAPGKERELVATITSSGGRTYYADSVKGRFTISRDNAKNTVYLQMNSLKPEDTAVYYCNAALSRAFKHSTGYDYWGQGTQVTVSS | low polyreactivity
QVQLVESGGGLVQAGGSLRLSCAASGRTFYYYALGWYRQAPGKERELVAVIRSSGDSTYYADSVKGRFTISRDNANNTVYLQMNSLKPEDTAVYYCNADPGEVLVGYDYWGQGTQVTVSS | low polyreactivity
QVQLVESGGGLVQAGGSLRLSCAASGRTFYYYAMGGYRQAPGKERELVAAISKSATRTYYADSVKGRFTISRDNAKNTVYLQMNSLKPEDTAVYYCATGQYLRTSRYYYWGQGTQVTVSS | high polyreactivity
QVQLVESGGGLVQAGGSLRLSCAASGRTFYYYAMGRYRQAPGKEREFVASISYSGARTYYADSVKGRFTISRDNAKNTVYLQMNSLKPEDTAVYYCAASWRSGRGTYGYWGQGTQVTVSS | high polyreactivity
QVQLVESGGGLVQAGGSLRLSCAASGRTFYYYAMGWYRQAPGKEREFVAAISWSGVRTSYADSVKGRFTISRDNAKNTVYLQMNSQKPEDTAVYYCNVAVAFYYDYWYSTYLTYEYDYWGQGTQVTVSS | high polyreactivity
QVQLVESGGGLVQAGGSLRLSCAASGRTFYYYAMGWYRQAPGKEREFVAAITTRGGSTYYADSVKGRFTISRDNAKNTVYLQMNSLKPEDTAVYYCAARSYYQGGYYYWGQGTQVTVSS | high polyreactivity
QVQLVESGGGLVQAGGSLRLSCAASGRTFYYYAMGWYRQAPGKERELVAAISSRGGSTYYADSVKGRFTISRDNAKNTVYLQMNSLKPEDTAVYYCAAERYFVLYRYYSYAYYYWGQGTQVTVSS | high polyreactivity
QVQLVESGGGLVQAGGSLRLSCAASGRTFYYYAMGWYRQAPGKERELVAAISWSGGRTYYADSVKGRFTISRDNAKNTVYLQMNSLKPEDTAVYYCAASSTGYGGSTYYYWGQGTQVTVSS | low polyreactivity
QVQLVESGGGLVQAGGSLRLSCAASGRTFYYYAMGWYRQAPGKERELVAGISWSAGSTYYADSVKGRFTISRDYAKNTVYLQMNSLKPEDTAVYYCAARYWQSYRSQVTHSSTLDYWGQGTQVTVSS | low polyreactivity
QVQLVESGGGLVQAGGSLRLSCAASGRTFYYYAMGWYRQAPGKERELVASISWSGGSTYYADSVKGRFTISRDNAKNTVYLQMNSLKPEDTAVYYCNAQYHTYRWLYAVYLSGDYWGQGTQVTVSS | low polyreactivity
QVQLVESGGGLVQAGGSLRLSCAASGRTFYYYVMGWYRQAPGKEREFVAAITSGGSTNYADSVKGRFTISRDNAKNTVYLQMNSLKPEDTAVYYCAAGKYTIYGYWTPYDYWGQGTQVTVSS | low polyreactivity
QVQLVESGGGLVQAGGSLRLSCAASGRTGKNAMGWYRQAPVKERELVAAIRYNGGSTYYADSVKGRFTISRDNAKNTVYLQMNSLKPEDTAVYYCAAASRRHNGSAFNYWGQGTLVTVSS | high polyreactivity
